Laboratory results published in US20210371480.
Changes are numbered by the printed parent chain.

B1: purified CFI (Comptech cat. A138) (protein)
chain: KVTYTSQEDLVEKKCLAKKYTHLSCDKVFCQPWQRCIEGTCVCKLPYQCPKNGTAVCATNRRSFPTYCQQKSLECLHPGTKFLNNGTCTAEGKFSVSLKHGNTDSEGIVEVKLVDQDKTMFICKSSWSMREANVACLDLGFQQGADTQRRFKLSDLSINSTECLHVHCRGLETSLAECTFTKRRTMGYQDFADVVCYTQKADSPMDDFFQCVNGKYISQMKACDGINDCGDQSDELCCKACQGKGFHCKSGVCIPSQYQCNGEVDCITGEDEVGCAGFASVTQEETEILTADMDAERRRIKSLLPKLSCGVKNRMHIRRKRIVGGKRAQLGDLPWQVAIKDASGITCGGIYIGGCWILTAAHCLRASKTHRYQIWTTVVDWIHPDLKRIVIEYVDRIIFHENYNAGTYQNDIALIEMKKDGNKKDCELPRSIPACVPWSPYLFQPNDTCIVSGWGREKDNERVFSLQWGEVKLISNCSKFYGNRFYEKEMECAGTYDGSIDACKGDSGGPLVCMDANNVTYVWGVVSWGENCGKPEFPGVYTKVANYFDWISYHVGRPFISQYNV
B2: CFI expressed in eyes of cynomolgus monkeys from AAV2-GP2031 (vector SEQ ID NO: 33) (protein)
chain: B1 chain with T282A

Tests used:
[1] = biological target: C3b (Complement Technology cat. A114), purified human C3b (UniProt P01024)
[2] = biological target: C3b (Complement Technology cat. A114), purified human C3b, P01024
Sequence of C3b (Complement Technology cat. A114), purified human C3b, P01024 (P01024 whole entry, looked up): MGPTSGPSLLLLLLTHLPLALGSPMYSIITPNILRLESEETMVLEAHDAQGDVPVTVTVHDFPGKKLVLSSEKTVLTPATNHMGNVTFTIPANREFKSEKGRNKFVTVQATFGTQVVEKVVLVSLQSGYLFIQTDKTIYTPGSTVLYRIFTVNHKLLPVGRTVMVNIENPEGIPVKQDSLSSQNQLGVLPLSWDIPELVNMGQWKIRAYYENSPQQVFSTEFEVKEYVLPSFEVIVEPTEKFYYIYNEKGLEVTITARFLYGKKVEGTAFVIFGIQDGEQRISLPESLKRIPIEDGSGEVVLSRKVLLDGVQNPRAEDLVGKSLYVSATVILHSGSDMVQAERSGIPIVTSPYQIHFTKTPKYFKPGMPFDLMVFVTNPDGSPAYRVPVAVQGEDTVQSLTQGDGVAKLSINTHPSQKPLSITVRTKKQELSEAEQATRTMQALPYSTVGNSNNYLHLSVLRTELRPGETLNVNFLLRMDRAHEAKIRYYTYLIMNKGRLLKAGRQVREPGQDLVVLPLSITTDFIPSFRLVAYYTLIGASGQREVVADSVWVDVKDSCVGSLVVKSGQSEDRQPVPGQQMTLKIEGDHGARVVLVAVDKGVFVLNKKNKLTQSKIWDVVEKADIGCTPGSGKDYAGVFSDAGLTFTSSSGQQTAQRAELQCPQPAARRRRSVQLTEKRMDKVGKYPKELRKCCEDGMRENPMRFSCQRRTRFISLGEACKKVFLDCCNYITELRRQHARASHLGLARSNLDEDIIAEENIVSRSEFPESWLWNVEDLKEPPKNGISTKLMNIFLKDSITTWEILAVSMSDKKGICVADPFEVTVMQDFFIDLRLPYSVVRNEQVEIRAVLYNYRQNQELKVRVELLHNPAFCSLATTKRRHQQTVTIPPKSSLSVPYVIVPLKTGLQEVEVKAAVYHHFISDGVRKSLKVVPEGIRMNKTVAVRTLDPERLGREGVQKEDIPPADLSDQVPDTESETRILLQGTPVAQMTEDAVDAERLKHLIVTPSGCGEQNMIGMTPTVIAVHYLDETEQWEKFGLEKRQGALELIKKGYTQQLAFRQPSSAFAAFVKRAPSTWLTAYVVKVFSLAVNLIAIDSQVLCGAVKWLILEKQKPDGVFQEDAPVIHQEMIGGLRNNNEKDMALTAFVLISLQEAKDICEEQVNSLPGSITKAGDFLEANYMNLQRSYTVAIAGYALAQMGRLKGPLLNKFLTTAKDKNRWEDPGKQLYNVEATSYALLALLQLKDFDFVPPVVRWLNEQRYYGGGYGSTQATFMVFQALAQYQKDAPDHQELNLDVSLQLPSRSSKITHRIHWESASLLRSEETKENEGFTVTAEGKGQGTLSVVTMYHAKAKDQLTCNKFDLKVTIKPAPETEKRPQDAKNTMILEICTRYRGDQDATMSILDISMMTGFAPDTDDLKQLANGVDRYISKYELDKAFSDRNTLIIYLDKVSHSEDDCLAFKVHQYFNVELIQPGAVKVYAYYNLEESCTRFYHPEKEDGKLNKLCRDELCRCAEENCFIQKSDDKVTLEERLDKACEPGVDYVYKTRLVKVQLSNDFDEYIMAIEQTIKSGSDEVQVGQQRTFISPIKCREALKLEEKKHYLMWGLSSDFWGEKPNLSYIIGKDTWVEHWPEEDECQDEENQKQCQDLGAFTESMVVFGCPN

Molecule | fluorescence cofactor assay: change in RFUs of ANS-labeled C3b over time, with cofactor CFH, MCP or CR1 [1] | other results
A240G CFI protein (Complement Factor I mutant variant) | certain CFI mutations (G119R, A240G, and P553S) were associated with greatly reduced CFI protein function | 
A300T CFI protein (Complement Factor I mutant variant) | the A300T mutation appeared to have relatively little impact on CFI function | 
G119R CFI protein (Complement Factor I mutant variant) | certain CFI mutations (G119R, A240G, and P553S) were associated with greatly reduced CFI protein function | 
P553S CFI protein (Complement Factor I mutant variant) | certain CFI mutations (G119R, A240G, and P553S) were associated with greatly reduced CFI protein function | 
B1 |  | slope of the co-factor assay (fluorescence of C3b/ANS with CFH, kinetic mode) [2]: the slope of the CFI control sample is -0.75±0.02
B2 |  | fluorescence cofactor assay with CFH: reduction in fluorescence at 472 nm of C3b/ANS mixed with vitreous humor [2]: CFI expressed in eyes of cynomolgus monkeys was capable of cleaving C3b in a dose-dependent manner
